This is an account of results in paper PMC5141497, “NMR studies on the interactions between yeast Vta1 and Did2 during the multivesicular bodies sorting pathway” (Scientific Reports, 2016).

The target in the experiment is T1, Vta1 N-terminal domain (residues 1–167) (S. cerevisiae, UniProt Q06263 1-167).
T1 construct: Vta1, S. cerevisiae, N-terminal domain with two tandem MIT domains, residues 1-167; Isotope labelled (15N, 13C, 70% 2H) or unlabelled, depending on the NMR sample; also called Vta1NTD; WT Vta1NTD; source: E. coli BL21(DE3), purified (Ni-NTA, ULP1 cleavage, second Ni-NTA, Resource Q); not shown: His6, N-terminal, cleaved; SUMO, N-terminal, cleaved
T1 sequence (looked up): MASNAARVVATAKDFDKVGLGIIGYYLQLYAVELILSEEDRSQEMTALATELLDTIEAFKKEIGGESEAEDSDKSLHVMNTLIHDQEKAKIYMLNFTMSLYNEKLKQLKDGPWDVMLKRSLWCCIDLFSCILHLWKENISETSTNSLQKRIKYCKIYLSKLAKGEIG
Description: ITC; about 0.1 mM Vta1NTD titrated with 2.0 mM Did2_(176–204) peptide, iTC-200, 25 °C, 25 mM sodium phosphate pH 7.0, 50 mM NaCl, one set of sites model. Particulars: both partners purified.

For orientation: Kd means the concentration at which binding is half-saturated. Low readings indicate higher affinity, high ones lower affinity. For orientation: stoichiometry N means the number of molecules, sites or subunits per partner or assembly.

B1: Did2 fragment (176–204 aa) (peptide)
chain: WNVPEIKAKEVNVDDEKEDKLAQRLRALRG
notes: extra tryptophan inserted at the N-terminus of the peptide to estimate its concentration; Natural stretch with one added N-terminal Trp; Isotope labelled (15N, 13C) or unlabelled, depending on the NMR sample; source: E. coli BL21(DE3), purified (Ni-NTA, Resource Q, ULP1 cleavage, Superdex 75), lyophilized; not shown: His6, N-terminal, cleaved; SUMO, N-terminal, cleaved
Regarding B1, the Kd is 12.8 ± 1 µM, the dH is -2.7 kcal/mol and the “stoichiometry N” value came to 1.16 ± 0.0266.
